Our source for the Kd values is article doi:10.1101/2024.09.08.611708 (2024).

The target of this test is MpATG8A (M. polymorpha). Briefly: ITC.

By Kd is commonly meant the concentration at which binding is half-saturated.

Chain of MpATG8A (M. polymorpha) (chain, as listed by the source): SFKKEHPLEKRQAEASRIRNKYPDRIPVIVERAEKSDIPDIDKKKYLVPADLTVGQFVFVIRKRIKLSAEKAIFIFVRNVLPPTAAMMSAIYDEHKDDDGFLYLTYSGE

B1: canonical AIM peptide (AIM wt) (peptide)
chain: DWEIV
B1: binding was characterised by a dissociation constant (Kd) of 55.6 nM. That is a double-digit nanomolar value.
